Data: patent US20220249633A1

Target: HLA-A*24 (human)
Test: UV-exchange ELISA, exchange yield grade

Binder	peptide exchange yield
KYLMELTLI [… (SEQ ID NO: 214)]	50 to 75%
NYLDVATFL [… (SEQ ID NO: 206)]	> 75%
AFIETPIPLF [… (SEQ ID NO: 209)]	> 75%
AYAANVHYL [… (SEQ ID NO: 187)]	> 75%
AYAQLGYLLF [… (SEQ ID NO: 182)]	> 75%
FYVNVKEQF [… (SEQ ID NO: 216)]	50 to 75%
VFKSEGAYF [… (SEQ ID NO: 211)]	> 75%
VYPVVLNQI [… (SEQ ID NO: 205)]	50 to 75%
TYLEKIDGF [… (SEQ ID NO: 208)]	> 75%
VYQSLSNSL [… (SEQ ID NO: 194)]	50 to 75%
EYLSTCSKL [… (SEQ ID NO: 204)]	50 to 75%
TYIPVGLGRLL [… (SEQ ID NO: 179)]	50 to 75%
TYPDGTYTGRIF [… (SEQ ID NO: 191)]	50 to 75%
DYVGFTLKI [… (SEQ ID NO: 198)]	20 to 49%
LYLENNAQTQF [… (SEQ ID NO: 193)]	50 to 75%
SYVASFFLL [… (SEQ ID NO: 215)]	20 to 49%
VYPPYLNYL [… (SEQ ID NO: 181)]	50 to 75%
GYNPNRVFF [… (SEQ ID NO: 201)]	50 to 75%
RYVEGIVSL [… (SEQ ID NO: 202)]	50 to 75%

Binder	peptide exchange yield
QYLVHVNDL [… (SEQ ID NO: 185)]	> 75%
SYLNHLNNL [… (SEQ ID NO: 199)]	50 to 75%
AYIKGGWIL [… (SEQ ID NO: 195)]	50 to 75%
IFTDIFHYL [… (SEQ ID NO: 197)]	> 75%
PYLQDVPRI [… (SEQ ID NO: 183)]	50 to 75%
VFTTSSNIF [… (SEQ ID NO: 186)]	> 75%
VFIHHLPQF [… (SEQ ID NO: 200)]	50 to 75%
NYSSAVQKF [… (SEQ ID NO: 178)]	50 to 75%
KYLQVVGMF [… (SEQ ID NO: 180)]	50 to 75%
SYAPPSEDLFL [… (SEQ ID NO: 213)]	20 to 49%
SYAPPSEDLF [… (SEQ ID NO: 212)]	20 to 49%
GYIRGSWQF [… (SEQ ID NO: 196)]	> 75%
IYSVGAFENF [… (SEQ ID NO: 184)]	> 75%
GYKTFFNEF [… (SEQ ID NO: 188)]	50 to 75%
LYSDAFKFIVF [… (SEQ ID NO: 207)]	50 to 75%
RYSTFSEIF [… (SEQ ID NO: 192)]	50 to 75%
LYSELTETL [… (SEQ ID NO: 190)]	50 to 75%
IYAGVGEFSF [… (SEQ ID NO: 210)]	> 75%

More lines, now with the values ahead:

peptide exchange yield	Binder
50 to 75%	SYVKVLHHL [… (SEQ ID NO: 241)]
50 to 75%	VYAIFRILL [… (SEQ ID NO: 239)]
50 to 75%	SFTKTSPNF [… (SEQ ID NO: 247)]
> 75%	KYIGNLDLL [… (SEQ ID NO: 221)]
50 to 75%	YYLSDSPLL [… (SEQ ID NO: 232)]
50 to 75%	VFGKSAYLF [… (SEQ ID NO: 256)]
50 to 75%	YYFFVQEKI [… (SEQ ID NO: 240)]
50 to 75%	KYVGQLAVL [… (SEQ ID NO: 237)]
> 75%	TFITQSPLL [… (SEQ ID NO: 223)]
50 to 75%	TYGMVMVTF [… (SEQ ID NO: 230)]
50 to 75%	VYKDSIYYI [… (SEQ ID NO: 235)]
50 to 75%	VYQKIILKF [… (SEQ ID NO: 255)]
50 to 75%	IYQFVADSF [… (SEQ ID NO: 229)]
20 to 49%	KYLSVQLTL [… (SEQ ID NO: 246)]
50 to 75%	PYFFANQEF [… (SEQ ID NO: 224)]
> 75%	AFGQETNVPLNNF [… (SEQ ID NO: 252)]
50 to 75%	IYRFITERF [… (SEQ ID NO: 227)]
> 75%	SYSEIKDFL [… (SEQ ID NO: 220)]
50 to 75%	KYLESSATF [… (SEQ ID NO: 254)]

peptide exchange yield	Binder
> 75%	IYISNSIYF [… (SEQ ID NO: 217)]
> 75%	AFPTFSVQL [… (SEQ ID NO: 248)]
20 to 49%	KYPDIASPTF [… (SEQ ID NO: 250)]
50 to 75%	QYLTAAALHNL [… (SEQ ID NO: 233)]
50 to 75%	IYQYVADNF [… (SEQ ID NO: 228)]
50 to 75%	VHFEDTGKTLLF [… (SEQ ID NO: 244)]
50 to 75%	LYSELNKWSF [… (SEQ ID NO: 218)]
20 to 49%	MYLKLVQLF [… (SEQ ID NO: 226)]
> 75%	RYHPTTCTI [… (SEQ ID NO: 249)]
50 to 75%	VYGEPRELL [… (SEQ ID NO: 242)]
50 to 75%	VYLPKIPSW [… (SEQ ID NO: 236)]
50 to 75%	IYGFFNENF [… (SEQ ID NO: 253)]
> 75%	AFADVSVKF [… (SEQ ID NO: 231)]
50 to 75%	VYTKALSSL [… (SEQ ID NO: 251)]
50 to 75%	LYPQLFVVL [… (SEQ ID NO: 245)]
50 to 75%	SYLPAIWLL [… (SEQ ID NO: 234)]
50 to 75%	SYLKAVFNL [… (SEQ ID NO: 219)]
50 to 75%	TYTNTLERL [… (SEQ ID NO: 225)]
50 to 75%	SYLELANTL [… (SEQ ID NO: 243)]
